Key:
EEF1A1 = EEF1A1 (UniProt P68104); assay: co-IP with mouse IgG control, mass spectrometry; lysate of C-FLAG B3GNT2 cells
LTF = LTF (UniProt P02788); assay: as above
ENO1 = ENO1 (UniProt P06733); assay: as above
ATP5F1B = ATP5F1B (UniProt P06576); assay: as above
RPL10A = RPL10A (UniProt P62906); assay: as above
RPL36A = RPL36A (UniProt P83881); assay: as above
SLIRP = SLIRP (UniProt Q9GZT3); assay: as above
YWHAZ = YWHAZ (UniProt P63104); assay: as above
STRAP = STRAP (UniProt Q9Y3F4); assay: as above
HNRNPA1 = HNRNPA1 (UniProt P09651); assay: as above
RPL36 = RPL36 (UniProt Q9Y3U8); assay: as above
UBA52 = UBA52 (UniProt P62987); assay: as above
FABP5 = FABP5 (UniProt Q01469); assay: as above
YBX3 = YBX3 (UniProt P16989); assay: as above
ACTR3 = ACTR3 (UniProt P61158); assay: as above
RPS17 = RPS17 (UniProt P08708); assay: as above
RPL31 = RPL31 (UniProt P62899); assay: as above
RPN1 = RPN1 (UniProt P04843); assay: as above
LYZ = LYZ (UniProt P61626); assay: as above
SERPINB12 = SERPINB12 (UniProt Q96P63); assay: as above
RPL21 = RPL21 (UniProt P46778); assay: as above
SSR1 = SSR1 (UniProt P43307); assay: as above
ATXN2L = ATXN2L (UniProt Q8WWM7); assay: as above
AHNAK = AHNAK (UniProt Q09666); assay: as above
PCMT1 = PCMT1 (UniProt P22061); assay: as above
SPRR2E = SPRR2E (UniProt P22531); assay: as above
HNRNPF = HNRNPF (UniProt P52597); assay: as above
RPS11 = RPS11 (UniProt P62280); assay: as above
ILF3 (human) = ILF3 (human) (UniProt Q12906); assay: co-IP with control IgG, mass spectrometry; lysate of cells with C-FLAG B3GNT2
EPRS (human) = EPRS (human) (UniProt P07814); assay: as above
RARS (human) = RARS (human) (UniProt P54136); assay: as above
RPS27 (human) = RPS27 (human) (UniProt P42677); assay: as above
SEL1L (human) = SEL1L (human) (UniProt Q9UBV2); assay: as above
PIGR (human) = PIGR (human) (UniProt P01833); assay: as above
PSMD4 (human) = PSMD4 (human) (UniProt P55036); assay: as above
UGGT1 (human) = UGGT1 (human) (UniProt Q9NYU2); assay: as above
CCT2 (human) = CCT2 (human) (UniProt P78371); assay: as above
CTHRC1 (human) = CTHRC1 (human) (UniProt Q96CG8); assay: as above

Sequence of SEL1L (human) (Q9UBV2 22-794 limits assumed): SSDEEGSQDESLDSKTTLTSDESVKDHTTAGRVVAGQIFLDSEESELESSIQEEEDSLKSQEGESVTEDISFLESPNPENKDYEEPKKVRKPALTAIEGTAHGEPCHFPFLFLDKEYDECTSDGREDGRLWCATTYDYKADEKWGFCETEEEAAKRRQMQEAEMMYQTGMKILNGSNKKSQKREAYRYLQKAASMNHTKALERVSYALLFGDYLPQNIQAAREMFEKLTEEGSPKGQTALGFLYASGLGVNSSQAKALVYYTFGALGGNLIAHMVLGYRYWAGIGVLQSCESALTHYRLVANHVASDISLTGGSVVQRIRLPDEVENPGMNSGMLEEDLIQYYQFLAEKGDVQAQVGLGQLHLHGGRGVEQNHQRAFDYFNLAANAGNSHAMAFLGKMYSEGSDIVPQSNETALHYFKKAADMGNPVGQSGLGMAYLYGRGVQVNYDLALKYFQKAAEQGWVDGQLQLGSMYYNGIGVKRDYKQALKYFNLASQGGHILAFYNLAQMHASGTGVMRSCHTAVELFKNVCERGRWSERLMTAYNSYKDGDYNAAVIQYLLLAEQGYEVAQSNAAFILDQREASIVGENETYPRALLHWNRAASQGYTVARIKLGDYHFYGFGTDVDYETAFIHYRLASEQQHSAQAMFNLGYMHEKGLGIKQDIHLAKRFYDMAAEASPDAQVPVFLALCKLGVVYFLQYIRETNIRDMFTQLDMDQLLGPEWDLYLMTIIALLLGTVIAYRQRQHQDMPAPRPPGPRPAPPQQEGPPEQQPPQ
Sequence of ATP5F1B (P06576 48-529 limits assumed): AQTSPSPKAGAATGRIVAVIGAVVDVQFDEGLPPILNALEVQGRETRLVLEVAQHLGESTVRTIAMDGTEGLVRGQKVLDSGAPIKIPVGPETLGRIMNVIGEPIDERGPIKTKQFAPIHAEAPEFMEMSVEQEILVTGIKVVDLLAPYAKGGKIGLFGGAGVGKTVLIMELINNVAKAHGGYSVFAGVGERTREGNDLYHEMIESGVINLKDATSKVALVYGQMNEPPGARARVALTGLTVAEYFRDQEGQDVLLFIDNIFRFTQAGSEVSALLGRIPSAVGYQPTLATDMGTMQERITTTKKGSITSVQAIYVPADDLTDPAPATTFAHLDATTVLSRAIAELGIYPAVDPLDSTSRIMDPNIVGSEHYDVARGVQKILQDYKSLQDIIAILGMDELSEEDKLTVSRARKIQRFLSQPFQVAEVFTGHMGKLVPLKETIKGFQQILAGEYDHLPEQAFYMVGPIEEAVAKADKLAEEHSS
Sequence of EEF1A1 (P68104 2-462 limits assumed): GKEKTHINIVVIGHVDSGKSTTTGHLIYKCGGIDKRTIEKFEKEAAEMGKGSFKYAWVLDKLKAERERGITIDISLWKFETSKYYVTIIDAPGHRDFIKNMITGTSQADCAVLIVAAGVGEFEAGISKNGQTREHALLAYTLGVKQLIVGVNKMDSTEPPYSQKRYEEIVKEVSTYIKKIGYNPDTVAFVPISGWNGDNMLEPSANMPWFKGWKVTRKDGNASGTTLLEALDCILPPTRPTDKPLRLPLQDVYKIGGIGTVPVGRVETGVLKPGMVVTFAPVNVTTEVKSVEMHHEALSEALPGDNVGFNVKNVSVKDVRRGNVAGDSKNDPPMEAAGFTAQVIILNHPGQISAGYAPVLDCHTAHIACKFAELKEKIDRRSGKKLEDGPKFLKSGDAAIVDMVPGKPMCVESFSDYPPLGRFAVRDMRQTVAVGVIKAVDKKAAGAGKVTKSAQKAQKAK
Sequence of CCT2 (human) (P78371 48-535 limits assumed): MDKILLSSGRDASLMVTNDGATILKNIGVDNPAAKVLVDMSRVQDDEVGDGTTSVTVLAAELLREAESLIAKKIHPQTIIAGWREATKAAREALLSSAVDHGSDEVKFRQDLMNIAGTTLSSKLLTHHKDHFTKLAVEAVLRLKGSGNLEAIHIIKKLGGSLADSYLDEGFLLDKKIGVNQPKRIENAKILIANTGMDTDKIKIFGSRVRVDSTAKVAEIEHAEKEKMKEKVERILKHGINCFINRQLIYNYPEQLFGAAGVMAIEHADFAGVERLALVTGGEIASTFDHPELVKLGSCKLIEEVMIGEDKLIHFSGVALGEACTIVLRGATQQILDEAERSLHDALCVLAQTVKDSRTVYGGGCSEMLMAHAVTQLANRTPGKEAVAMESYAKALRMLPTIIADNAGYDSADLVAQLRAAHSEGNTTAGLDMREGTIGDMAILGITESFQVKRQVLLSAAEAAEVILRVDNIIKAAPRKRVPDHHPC
Sequence of RPN1 (P04843 24-607 limits assumed): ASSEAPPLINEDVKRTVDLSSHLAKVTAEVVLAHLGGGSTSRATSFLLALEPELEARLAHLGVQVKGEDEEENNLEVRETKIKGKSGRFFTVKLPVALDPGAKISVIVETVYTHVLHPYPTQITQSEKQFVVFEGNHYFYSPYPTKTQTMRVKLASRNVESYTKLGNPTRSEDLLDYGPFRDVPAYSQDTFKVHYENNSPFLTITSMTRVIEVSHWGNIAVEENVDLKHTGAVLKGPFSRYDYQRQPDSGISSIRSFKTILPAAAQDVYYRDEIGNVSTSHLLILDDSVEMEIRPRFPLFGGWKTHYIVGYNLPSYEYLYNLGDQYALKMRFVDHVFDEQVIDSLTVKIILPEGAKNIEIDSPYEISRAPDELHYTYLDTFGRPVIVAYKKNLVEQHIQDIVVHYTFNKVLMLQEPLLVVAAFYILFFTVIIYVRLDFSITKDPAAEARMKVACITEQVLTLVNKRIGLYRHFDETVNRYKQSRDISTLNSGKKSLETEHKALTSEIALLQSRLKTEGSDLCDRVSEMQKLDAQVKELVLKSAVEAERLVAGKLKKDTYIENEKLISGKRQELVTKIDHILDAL
Sequence of EPRS (human) (P07814 whole entry): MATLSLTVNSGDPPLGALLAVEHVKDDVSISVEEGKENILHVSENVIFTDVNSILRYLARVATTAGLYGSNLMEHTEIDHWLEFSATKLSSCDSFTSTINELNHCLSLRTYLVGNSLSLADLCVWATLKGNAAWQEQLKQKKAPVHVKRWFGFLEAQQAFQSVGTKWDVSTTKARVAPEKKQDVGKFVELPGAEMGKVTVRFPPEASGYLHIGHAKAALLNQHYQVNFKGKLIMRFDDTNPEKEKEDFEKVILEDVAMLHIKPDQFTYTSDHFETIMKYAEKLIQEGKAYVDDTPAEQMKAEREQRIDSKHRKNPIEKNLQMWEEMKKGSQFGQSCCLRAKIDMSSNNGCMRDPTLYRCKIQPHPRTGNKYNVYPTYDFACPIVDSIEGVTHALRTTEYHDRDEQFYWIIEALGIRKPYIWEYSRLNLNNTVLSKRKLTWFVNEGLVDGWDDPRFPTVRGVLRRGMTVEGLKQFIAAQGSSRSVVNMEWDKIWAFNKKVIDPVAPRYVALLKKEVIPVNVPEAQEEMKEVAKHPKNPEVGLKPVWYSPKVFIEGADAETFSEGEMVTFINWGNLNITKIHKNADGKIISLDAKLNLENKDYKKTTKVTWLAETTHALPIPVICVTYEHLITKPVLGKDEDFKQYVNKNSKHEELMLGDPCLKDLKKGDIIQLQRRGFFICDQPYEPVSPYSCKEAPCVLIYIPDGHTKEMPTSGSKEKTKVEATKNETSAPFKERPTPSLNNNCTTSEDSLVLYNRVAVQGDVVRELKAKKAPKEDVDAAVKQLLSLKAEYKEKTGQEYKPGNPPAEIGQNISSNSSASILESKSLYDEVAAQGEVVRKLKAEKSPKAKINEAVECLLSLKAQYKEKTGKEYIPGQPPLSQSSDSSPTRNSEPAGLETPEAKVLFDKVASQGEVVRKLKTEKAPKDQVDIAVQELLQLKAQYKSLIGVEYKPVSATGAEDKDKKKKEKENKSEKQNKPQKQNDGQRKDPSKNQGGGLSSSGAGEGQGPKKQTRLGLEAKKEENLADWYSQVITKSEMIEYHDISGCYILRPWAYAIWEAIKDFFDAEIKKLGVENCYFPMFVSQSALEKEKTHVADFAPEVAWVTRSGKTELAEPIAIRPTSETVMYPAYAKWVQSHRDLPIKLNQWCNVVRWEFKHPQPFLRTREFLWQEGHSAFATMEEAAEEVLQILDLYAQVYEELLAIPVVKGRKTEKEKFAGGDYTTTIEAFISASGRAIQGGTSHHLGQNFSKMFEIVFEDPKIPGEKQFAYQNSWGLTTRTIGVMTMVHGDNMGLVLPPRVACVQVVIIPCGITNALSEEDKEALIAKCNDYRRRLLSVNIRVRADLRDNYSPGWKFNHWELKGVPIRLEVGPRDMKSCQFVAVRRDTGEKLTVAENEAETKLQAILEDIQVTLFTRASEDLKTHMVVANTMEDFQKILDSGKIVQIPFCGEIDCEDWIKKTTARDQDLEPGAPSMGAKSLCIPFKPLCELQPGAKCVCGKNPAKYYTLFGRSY
Sequence of YBX3 (P16989 2-372 limits assumed): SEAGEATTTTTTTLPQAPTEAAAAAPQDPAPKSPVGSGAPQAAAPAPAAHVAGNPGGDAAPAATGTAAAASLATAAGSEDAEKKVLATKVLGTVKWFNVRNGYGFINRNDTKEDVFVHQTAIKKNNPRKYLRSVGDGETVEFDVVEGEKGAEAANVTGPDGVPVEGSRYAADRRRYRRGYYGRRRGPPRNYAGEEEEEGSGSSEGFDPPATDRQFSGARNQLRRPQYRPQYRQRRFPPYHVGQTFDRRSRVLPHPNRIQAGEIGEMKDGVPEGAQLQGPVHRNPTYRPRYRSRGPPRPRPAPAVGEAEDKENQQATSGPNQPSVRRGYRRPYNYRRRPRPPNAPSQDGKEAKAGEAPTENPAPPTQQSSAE
Sequence of PSMD4 (human) (P55036 whole entry): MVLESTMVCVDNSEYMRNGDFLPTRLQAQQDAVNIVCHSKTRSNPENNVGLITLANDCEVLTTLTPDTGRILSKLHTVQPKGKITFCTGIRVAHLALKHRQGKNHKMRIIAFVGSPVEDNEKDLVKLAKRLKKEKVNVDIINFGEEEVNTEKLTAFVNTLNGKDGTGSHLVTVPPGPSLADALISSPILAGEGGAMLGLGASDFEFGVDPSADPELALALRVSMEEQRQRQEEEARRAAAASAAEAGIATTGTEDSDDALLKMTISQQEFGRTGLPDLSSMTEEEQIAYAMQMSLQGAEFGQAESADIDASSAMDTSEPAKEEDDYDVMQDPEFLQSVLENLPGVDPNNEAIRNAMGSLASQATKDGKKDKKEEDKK

“IgG control (Millipore Sigma 12-371) (antibody)” gave a co-IP mass spectrometry count (EEF1A1) of 5, a co-IP mass spectrometry count (LTF) of 2 and a co-IP mass spectrometry count (ENO1) of 2. For the same substance, the co-IP mass spectrometry count (ATP5F1B) was 0, the co-IP mass spectrometry count (RPL10A) was 0 and the co-IP mass spectrometry count (RPL36A) was 0. For the same substance, the co-IP mass spectrometry count (SLIRP) was 0, the co-IP mass spectrometry count (YWHAZ) was 0 and the co-IP mass spectrometry count (STRAP) was 0. It also gave a co-IP mass spectrometry count (HNRNPA1) of 4, a co-IP mass spectrometry count (RPL36) of 0 and a co-IP mass spectrometry count (UBA52) of 7. For the same substance, the co-IP mass spectrometry count (FABP5) was 0, the co-IP mass spectrometry count (YBX3) was 0 and the co-IP mass spectrometry count (ACTR3) was 2. For the same substance, the co-IP mass spectrometry count (RPS17) was 5, the co-IP mass spectrometry count (RPL31) was 0 and the co-IP mass spectrometry count (RPN1) was 0. The co-IP mass spectrometry count (LYZ) was 0, the co-IP mass spectrometry count (SERPINB12) was 0 and the co-IP mass spectrometry count (RPL21) was 5. For the same substance, the co-IP mass spectrometry count (SSR1) was 0, the co-IP mass spectrometry count (ATXN2L) was 2 and the co-IP mass spectrometry count (AHNAK) was 2. For the same substance, the co-IP mass spectrometry count (PCMT1) was 0, the co-IP mass spectrometry count (SPRR2E) was 5 and the co-IP mass spectrometry count (HNRNPF) was 3. The co-IP mass spectrometry count (RPS11) was 9, the co-IP mass spectrometry count (ILF3 (human)) was 0 and the co-IP mass spectrometry count (EPRS (human)) was 0. The co-IP mass spectrometry count (RARS (human)) was 0, the co-IP mass spectrometry count (RPS27 (human)) was 0 and the co-IP mass spectrometry count (SEL1L (human)) was 0. It also gave a co-IP mass spectrometry count (PIGR (human)) of 0, a co-IP mass spectrometry count (PSMD4 (human)) of 0 and a co-IP mass spectrometry count (UGGT1 (human)) of 0. It also gave a co-IP mass spectrometry count (CCT2 (human)) of 0 and a co-IP mass spectrometry count (CTHRC1 (human)) of 0.

From patent US20240261333A1, “NOVEL TARGETS FOR ENHANCING ANTI-TUMOR IMMUNITY” (THE BROAD INSTITUTE, INC., priority 2021, published 2024)
